From article PMC11030525

Tests used:
[1] = biological target: AHA1, mouse (UniProt Q8BK64); test: mCherry antibody affinity purification (IP) with SILAC LC-MS; conditions: E14 ESCs; AA mutant in light media, EE mutant in heavy media; representative spectrum; mCherry EE:AA = 1.08 in the same panel
[2] = biological target: FKBP4, mouse (UniProt P30416); test: as above; conditions: E14 ESCs; AA mutant in light media, EE mutant in heavy media; representative spectrum; mCherry EE:AA = 1.08 in the same panel
FKBP4, mouse, sequence (P30416 whole entry): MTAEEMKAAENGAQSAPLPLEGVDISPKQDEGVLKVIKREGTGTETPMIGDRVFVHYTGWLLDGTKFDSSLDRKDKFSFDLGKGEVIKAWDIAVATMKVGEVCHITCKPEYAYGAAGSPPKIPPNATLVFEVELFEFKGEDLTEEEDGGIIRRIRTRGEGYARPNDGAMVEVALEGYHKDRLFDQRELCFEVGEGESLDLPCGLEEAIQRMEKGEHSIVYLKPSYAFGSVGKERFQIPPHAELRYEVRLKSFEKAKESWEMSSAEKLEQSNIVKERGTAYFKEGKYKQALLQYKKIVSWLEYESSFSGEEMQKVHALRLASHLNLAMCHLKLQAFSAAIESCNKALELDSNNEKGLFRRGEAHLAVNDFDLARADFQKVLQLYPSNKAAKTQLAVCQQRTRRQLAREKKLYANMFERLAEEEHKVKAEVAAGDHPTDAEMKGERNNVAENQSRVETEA

mCherry-HSP90β-Wild type, P08238 S226E; S255E, sequence (P08238 whole entry S226E/S255E): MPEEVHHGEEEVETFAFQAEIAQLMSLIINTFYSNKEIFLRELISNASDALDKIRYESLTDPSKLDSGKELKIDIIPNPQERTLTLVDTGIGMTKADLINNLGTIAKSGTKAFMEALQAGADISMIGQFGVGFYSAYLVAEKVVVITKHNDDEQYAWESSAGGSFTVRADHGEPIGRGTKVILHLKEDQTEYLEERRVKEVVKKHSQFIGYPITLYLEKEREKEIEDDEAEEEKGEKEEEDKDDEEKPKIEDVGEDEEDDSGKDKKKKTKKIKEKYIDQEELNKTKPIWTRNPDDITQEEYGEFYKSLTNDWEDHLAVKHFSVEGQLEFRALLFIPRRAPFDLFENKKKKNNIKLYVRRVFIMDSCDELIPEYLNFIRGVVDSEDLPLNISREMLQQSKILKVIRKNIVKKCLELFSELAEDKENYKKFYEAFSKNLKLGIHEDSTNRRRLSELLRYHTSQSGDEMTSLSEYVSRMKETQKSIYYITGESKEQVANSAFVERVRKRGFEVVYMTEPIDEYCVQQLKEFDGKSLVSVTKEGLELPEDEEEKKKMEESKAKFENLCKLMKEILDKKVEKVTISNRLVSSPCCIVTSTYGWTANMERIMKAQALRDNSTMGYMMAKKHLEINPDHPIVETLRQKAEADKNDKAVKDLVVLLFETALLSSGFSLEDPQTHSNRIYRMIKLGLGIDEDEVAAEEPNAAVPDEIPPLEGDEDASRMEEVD
AHA1, mouse, sequence (Q8BK64 whole entry): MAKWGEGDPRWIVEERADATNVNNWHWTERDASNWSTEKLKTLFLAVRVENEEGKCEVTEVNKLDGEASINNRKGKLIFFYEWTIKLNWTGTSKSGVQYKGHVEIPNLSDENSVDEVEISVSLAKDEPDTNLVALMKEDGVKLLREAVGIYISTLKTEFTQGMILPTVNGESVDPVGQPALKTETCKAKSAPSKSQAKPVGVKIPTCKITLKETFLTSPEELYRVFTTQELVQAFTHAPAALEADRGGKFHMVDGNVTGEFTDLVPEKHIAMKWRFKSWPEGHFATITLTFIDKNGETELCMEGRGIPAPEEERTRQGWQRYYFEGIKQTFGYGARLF

other: SILAC ratio EE:AA [1]: 1.69
other: SILAC ratio EE:AA [2]: 1.74
Substance: mCherry-HSP90β-Wild type, P08238 S226E; S255E
